US20130071375A1
Where “and” joins values, the source holds several entries; their conditions need not be identical. Equal values may be shown once.

What was measured:
[1] = target: Endothelial protein C receptor (human) (UniProt Q9UNN8); experiment: cell-based or functional assay
[2] = target: Protease-activated receptor 1 (human) (UniProt P25116); experiment: cell-based or functional assay
Chain of Protease-activated receptor 1 (human) (P25116 42-425): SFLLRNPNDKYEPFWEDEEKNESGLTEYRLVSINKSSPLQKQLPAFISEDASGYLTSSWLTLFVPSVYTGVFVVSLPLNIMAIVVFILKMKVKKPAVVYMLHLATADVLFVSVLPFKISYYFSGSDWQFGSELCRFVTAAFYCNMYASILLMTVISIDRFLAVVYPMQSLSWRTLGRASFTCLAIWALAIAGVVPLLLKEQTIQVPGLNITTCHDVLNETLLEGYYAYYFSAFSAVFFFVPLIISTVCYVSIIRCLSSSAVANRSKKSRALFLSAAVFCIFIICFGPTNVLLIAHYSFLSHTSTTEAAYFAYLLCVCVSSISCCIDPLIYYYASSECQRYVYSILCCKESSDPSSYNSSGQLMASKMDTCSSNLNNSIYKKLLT

Chain of Endothelial protein C receptor (human) (Q9UNN8 18-238): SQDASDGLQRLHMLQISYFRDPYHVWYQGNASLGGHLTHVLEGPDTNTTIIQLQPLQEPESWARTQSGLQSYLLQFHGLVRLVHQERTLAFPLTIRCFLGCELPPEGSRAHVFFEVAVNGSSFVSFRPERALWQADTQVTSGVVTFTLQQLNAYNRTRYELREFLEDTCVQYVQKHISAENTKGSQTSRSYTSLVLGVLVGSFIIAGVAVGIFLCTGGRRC

Substance	inhibition of LPS (100 ng/mL)-mediated HMGB1 release by HUVECs (ELISA) [1]	efficacy relative to APC in inhibiting adherence and migration of THP-1 cells across HMGB1-activated HUVEC monolayer [2] [fold]
Activated protein C (from UniProt P04070 43-461)	> 10 nM and 100 nM	–
PCgla/meizothrombin (meizothrombin with its Gla-domain replaced by that of protein C; Factor Xa-activated PCgla/prothrombin-3A)	< 1 nM	20 to 50
